The values below come from patent CN117551199A (HANGZHOU RONGGU BIOTECHNOLOGY CO LTD, dated 2024).

The experiment concerns the target T1, CLDN18.2 (Claudin18.2) expressed on cells (UniProt P56856-2 1-261).
T1 construct: whole, on cells; also called K562-CLDN18.2
T1 sequence (looked up): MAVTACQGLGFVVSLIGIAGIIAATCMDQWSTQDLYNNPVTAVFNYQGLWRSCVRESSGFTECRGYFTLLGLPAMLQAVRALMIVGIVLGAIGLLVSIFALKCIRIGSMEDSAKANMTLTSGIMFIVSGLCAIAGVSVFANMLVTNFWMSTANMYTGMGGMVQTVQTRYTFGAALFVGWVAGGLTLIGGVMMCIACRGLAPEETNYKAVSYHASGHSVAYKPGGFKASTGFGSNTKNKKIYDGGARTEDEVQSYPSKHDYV
Nature of the experiment: flow cytometry on K562-CLDN18.2 cells, anti-Myc-Tag detection. For orientation: In flow cytometry, cells or beads pass a laser one at a time.

B1: Claudin18.2纳米抗体 12B (VHH)
VHH: EVQLVESGGGSVQAGGSLRLSCAVSGYTYNLKYMGWFRQAPGKEREPVAFIYLGGDNQYYAPSVKDRFTISQDNAKNTVYLQMNSLKPDDTAMYYCAATTALLFLAQTSSWNYWGQGTQVTVSS
notes: Bactrian camel VHH, made in a cell-free system and purified on His beads; detected through a Myc tag; also called Claudin18.2nb; not shown: N-terminal tag of the cell-free construct (8His-GSG and vector-derived residues, known only from primer DNA); amino acid; C-terminal Myc tag (detected with anti-Myc antibody)
Consider B1, for which the binding result was “binds”.

B2: Claudin18.2纳米抗体 11C (VHH)
VHH: DVQLQESGGGSVQAGGSLRLSCAASGAIYMRNYMAWFRQVPGKEREGVAGISASSGRTYYDDSVKGRFTISQDNAKNTVYLQMNSLKPEDTAMYFCAADPFQVMIDTMRYWGQGTQVTVSS
notes: Bactrian camel VHH, made in a cell-free system and purified on His beads; detected through a Myc tag; also called Claudin18.2nb; not shown: N-terminal tag of the cell-free construct (8His-GSG and vector-derived residues, known only from primer DNA); amino acid; C-terminal Myc tag (detected with anti-Myc-Tag 9B11)
Regarding B2, the binding result is on record as “binds”.

B3: Claudin18.2纳米抗体 10B (VHH)
VHH: EVQLVESGGGSVQAGGSLRLSCAASEQTYNRYCMGWFRQAPGKEREGVADINWRGIPNYSDSVKGRFTISQDHAKNTLYLQMNSLKPEDTAMYYCAARRGLPVVGCYDEYNIWGQGTQVTVSS
notes: as for B2
In the case of B3, the binding result is “binds”.

B4: Claudin18.2纳米抗体 2F (VHH)
VHH: QVQLVESGGGSVQAGGSLRLSCAGSGYVYPYYCMGWFRQAPGKERERVASIDRAGSQSYADSVKGRFTISKDNAKNTLYLQMGSLEPEDTAMYYCATDLGDGLWYSGCGTYRYWGQGTQVTVSS
notes: as for B2
Turning to B4, the binding result is “binds”.
